How the values were obtained:
[1] = molecular target: T1, human 41BB (human, UniProt Q07011 24-255); assay: FACS on human 41BB transfected CHO cells
T1 construct: whole, on cells; also called 41BB expressing CHO cells; human 41BB transfected CHO cells
Procedure: (§1) Example 2: FACS Analysis of Tetra-Specific GNC Antibody Binding to Human 41BB Transfected CHO Cells The tetra-specific GNC antibodies listed in TABLEs 3 and 4 were tested for binding to Chinese hamster ovary cells (CHO) cells stably expressing a full-length human ROR1. Antibodies were prepared at 2× final concentration and titrated 1:5 across 3 wells of a 96 well plate in 50 ul of PBS/2% FBS and then 5,000 ROR1-CHO cells in 50 ul PBS/2% FBS were added. This mixture was incubated for 30 minutes on ice, washed once with 200 ul PBS/2% FBS, and then the secondary antibody PE Goat anti-Human IgG Fc at 1:1000 dilution of stock was added, and this mixture was incubated for 30 minutes on ice. Cells were washed 2×200 ul PBS/2% FBS, resuspended in 50 ul PBS/2% FBS and analyzed on a BD LSRFORTESSA and the binding profile is shown in FIG. 5. All of the tetra-specific GNC antibodies except for the control SI-27E12 contain a 41BB binding domain, 460C3, 420H5, or 466F6 and bound to 41BB expressing CHO cells with varying intensity.

[2] = molecular target: T2, human PD-L1 (human, UniProt Q9NZQ7 19-290); assay: FACS on human PD-L1 transfected CHO cells
T2 construct: whole, on cells; also called PDL1 expressing CHO cells; human PD-L1 transfected CHO cells
T2 sequence (Q9NZQ7 19-290): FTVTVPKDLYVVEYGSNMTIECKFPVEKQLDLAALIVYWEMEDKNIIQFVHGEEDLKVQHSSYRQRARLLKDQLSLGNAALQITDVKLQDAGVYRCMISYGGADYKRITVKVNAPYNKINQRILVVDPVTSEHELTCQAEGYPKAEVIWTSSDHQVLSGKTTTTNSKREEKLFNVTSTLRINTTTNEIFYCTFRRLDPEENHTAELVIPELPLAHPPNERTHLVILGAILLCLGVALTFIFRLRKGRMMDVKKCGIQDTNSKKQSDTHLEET
Procedure: as §1, with “3:” for “2:”, “PDL1” for “41BB”, “[…]” for “a full-length”, “6.” for “5. All of the tetra-specific GNC antibodies except for the control SI-27E12 contain a 41BB binding domain, 460C3, 420H5, or 466F6 and bound to 41BB expressing CHO cells with varying intensity.”

[3] = molecular target: T3, full-length human ROR1 (human, UniProt Q01973 30-937); assay: FACS on CHO cells stably expressing full-length human ROR1
T3 construct: whole, on cells; also called human ROR1 transfected CHO cells; ROR1-CHO cells
T3 sequence (Q01973 30-937): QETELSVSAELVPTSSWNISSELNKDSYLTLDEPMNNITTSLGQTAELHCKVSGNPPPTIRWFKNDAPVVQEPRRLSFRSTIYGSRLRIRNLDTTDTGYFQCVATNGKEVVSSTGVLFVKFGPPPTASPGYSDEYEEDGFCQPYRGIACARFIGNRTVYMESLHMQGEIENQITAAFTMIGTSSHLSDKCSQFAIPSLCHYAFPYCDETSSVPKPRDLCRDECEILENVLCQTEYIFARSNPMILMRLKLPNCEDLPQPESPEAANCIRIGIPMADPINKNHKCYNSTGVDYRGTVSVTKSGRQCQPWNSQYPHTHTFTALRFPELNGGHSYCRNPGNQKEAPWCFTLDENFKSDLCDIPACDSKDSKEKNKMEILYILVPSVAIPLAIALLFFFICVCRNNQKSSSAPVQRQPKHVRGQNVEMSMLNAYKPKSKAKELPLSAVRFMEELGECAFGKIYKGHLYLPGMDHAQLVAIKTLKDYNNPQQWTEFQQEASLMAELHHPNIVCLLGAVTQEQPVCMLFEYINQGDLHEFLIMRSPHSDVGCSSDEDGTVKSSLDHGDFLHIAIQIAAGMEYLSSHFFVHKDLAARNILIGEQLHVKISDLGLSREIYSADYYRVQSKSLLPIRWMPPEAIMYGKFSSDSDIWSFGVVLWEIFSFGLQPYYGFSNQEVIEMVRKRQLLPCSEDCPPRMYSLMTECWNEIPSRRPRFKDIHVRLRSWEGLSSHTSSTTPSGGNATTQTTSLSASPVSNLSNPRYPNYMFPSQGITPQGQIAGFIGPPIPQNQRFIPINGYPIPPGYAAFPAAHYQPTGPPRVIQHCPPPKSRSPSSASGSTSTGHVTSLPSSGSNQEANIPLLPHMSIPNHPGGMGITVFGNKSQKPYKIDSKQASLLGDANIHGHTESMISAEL
Procedure: as §1, with “Example 1:” for “Example 2:”, “Tetra-Specific Specific” for “Tetra-Specific GNC”, “Human ROR1” for “Human 41BB”, “FIG. 4.” for “FIG. 5. All of the tetra-specific GNC antibodies except for the control SI-27E12 contain a 41BB binding domain, 460C3, 420H5, or 466F6 and bound to 41BB expressing CHO cells with varying intensity.”

T1 sequence (Q07011 24-255): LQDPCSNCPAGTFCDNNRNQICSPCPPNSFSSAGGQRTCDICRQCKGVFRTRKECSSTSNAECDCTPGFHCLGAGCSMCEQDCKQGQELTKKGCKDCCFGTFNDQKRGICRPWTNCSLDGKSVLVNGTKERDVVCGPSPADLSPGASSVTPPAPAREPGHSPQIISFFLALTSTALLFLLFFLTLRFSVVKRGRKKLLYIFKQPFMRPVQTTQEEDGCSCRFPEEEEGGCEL

Binder | binding result [1] | binding result [2] | binding result [3]
SI-35E26 (bispecific antibody, not shown: small tags and cut ends, Tetra-specific; the listing has only VHv3/VLv2) heavy (part 1 of 7): DVVMTQSPSSVSASVGDRVTITCQASQNIRTYLSWYQQKPGKAPKLLIYAAANLASGVPSRFSGSGSGTDFTLTISDLEPGDAATYYCQSTYLGTDYVGGAFGGGTKVEIK heavy (part 2 of 7): RSLVESGGGLVQPGGSLRLSCTASGFTISSYHMQWVRQAPGKGLEYIGTISSGGNVYYASSARGRFTISRPSSKNTVDLQMNSLRAEDTAVYYCARDSGYSDPMWGQGTLVTVSS heavy (part 3 of 7): not shown heavy (part 4 of 7): EVQLVESGGGLVQPGGSLRLSCAASGFSLNNYWMSWVRQAPGKGLEWIGTISSGAYTWFATWATGRFTISRDNSKNTLYLQMNSLRAEDTAVYYCARYSSTTDWTYFNIWGQGTLVTVSS heavy (part 5 of 7): DIQMTQSPSTLSASVGDRVTITCQASQSINNYLAWYQQKPGKAPKLLIYRASTLESGVPSRFSGSGSGTEFTLTISSLQPDDFATYYCQSYNGVGRTAFGGGTKVEIK heavy (part 6 of 7): EVQLVESGGGLVQPGGSLRLSCAASGFTISTNAMSWVRQAPGKGLEWIGVITGRDITYYASWAKGRFTISRDNSKNTLYLQMNSLRAEDTAVYYCARDGGSSAITSNNIWGQGTLVTVSS heavy (part 7 of 7): DVVMTQSPSTLSASVGDRVTINCQASESISSWLAWYQQKPGKAPKLLIYEASKLASGVPSRFSGSGSGTEFTLTISSLQPDDFATYYCQGYFYFISRTYVNSFGGGTKVEIK light: AYDMTQSPSSVSASVGDRVTIKCQASEDIYSFLAWYQQKPGKAPKLLIHSASSLASGVPSRFSGSGSGTDFTLTISSLQPEDFATYYCQQGYGKNNVDNAFGGGTKVEIKRTVAAPSVFIFPPSDEQLKSGTASVVCLLNNFYPREAKVQWKVDNALQSGNSQESVTEQDSKDSTYSLSSTLTLSKADYEKHKVYACEVTHQGLSSPVTKSFNRGEC | binds | binds | no binding
SI-35E19 (bispecific antibody, not shown: small tags and cut ends, Tetra-specific; the listing has only VHv3/VLv2) heavy (part 1 of 7): ALVMTQSPSTLSASVGDRVTINCQASEDIDTYLAWYQQKPGKAPKLLIFYASDLASGVPSRFSGSGSGTEFTLTISSLQPDDFATYYCQGGYYTSSADTRGAFGGGTKVEIK heavy (part 2 of 7): QSLVESGGGLVQPGGSLRLSCAASGFSFSSNYWICWVRQAPGKGLEWIACIYVGSSGDTYYASSAKGRFTISRDNSKNTLYLQMNSLRAEDTAVYYCARDSSSYYMFNLWGQGTLVTVSS heavy (part 3 of 7): not shown heavy (part 4 of 7): EVQLLESGGGLVQPGGSLRLSCAASGFTISRYHMTWVRQAPGKGLEWIGHIYVNNDDTDYASSAKGRFTISRDNSKNTLYLQMNSLRAEDTATYFCARLDVGGGGAYIGDIWGQGTLVTVSS heavy (part 5 of 7): DIQMTQSPSSLSASVGDRVTITCQSSQSVYNNNDLAWYQQKPGKVPKLLIYYASTLASGVPSRFSGSGSGTDFTLTISSLQPEDVATYYCAGGYDTDGLDTFAFGGGTKVEIK heavy (part 6 of 7): EVQLVESGGGLVQPGGSLRLSCAASGFTISTNAMSWVRQAPGKGLEWIGVITGRDITYYASWAKGRFTISRDNSKNTLYLQMNSLRAEDTAVYYCARDGGSSAITSNNIWGQGTLVTVSS heavy (part 7 of 7): DVVMTQSPSTLSASVGDRVTINCQASESISSWLAWYQQKPGKAPKLLIYEASKLASGVPSRFSGSGSGTEFTLTISSLQPDDFATYYCQGYFYFISRTYVNSFGGGTKVEIK light: AYDMTQSPSSVSASVGDRVTIKCQASEDIYSFLAWYQQKPGKAPKLLIHSASSLASGVPSRFSGSGSGTDFTLTISSLQPEDFATYYCQQGYGKNNVDNAFGGGTKVEIKRTVAAPSVFIFPPSDEQLKSGTASVVCLLNNFYPREAKVQWKVDNALQSGNSQESVTEQDSKDSTYSLSSTLTLSKADYEKHKVYACEVTHQGLSSPVTKSFNRGEC | binds | binds | binds
SI-35E20 (bispecific antibody, not shown: small tags and cut ends, Tetra-specific; the listing has only VHv3/VLv2) heavy (part 1 of 7): DVVMTQSPSSVSASVGDRVTITCQASQNIRTYLSWYQQKPGKAPKLLIYAAANLASGVPSRFSGSGSGTDFTLTISDLEPGDAATYYCQSTYLGTDYVGGAFGGGTKVEIK heavy (part 2 of 7): RSLVESGGGLVQPGGSLRLSCTASGFTISSYHMQWVRQAPGKGLEYIGTISSGGNVYYASSARGRFTISRPSSKNTVDLQMNSLRAEDTAVYYCARDSGYSDPMWGQGTLVTVSS heavy (part 3 of 7): not shown heavy (part 4 of 7): EVQLLESGGGLVQPGGSLRLSCAASGFTISRYHMTWVRQAPGKGLEWIGHIYVNNDDTDYASSAKGRFTISRDNSKNTLYLQMNSLRAEDTATYFCARLDVGGGGAYIGDIWGQGTLVTVSS heavy (part 5 of 7): DIQMTQSPSSLSASVGDRVTITCQSSQSVYNNNDLAWYQQKPGKVPKLLIYYASTLASGVPSRFSGSGSGTDFTLTISSLQPEDVATYYCAGGYDTDGLDTFAFGGGTKVEIK heavy (part 6 of 7): EVQLVESGGGLVQPGGSLRLSCAASGFTISTNAMSWVRQAPGKGLEWIGVITGRDITYYASWAKGRFTISRDNSKNTLYLQMNSLRAEDTAVYYCARDGGSSAITSNNIWGQGTLVTVSS heavy (part 7 of 7): DVVMTQSPSTLSASVGDRVTINCQASESISSWLAWYQQKPGKAPKLLIYEASKLASGVPSRFSGSGSGTEFTLTISSLQPDDFATYYCQGYFYFISRTYVNSFGGGTKVEIK light: AYDMTQSPSSVSASVGDRVTIKCQASEDIYSFLAWYQQKPGKAPKLLIHSASSLASGVPSRFSGSGSGTDFTLTISSLQPEDFATYYCQQGYGKNNVDNAFGGGTKVEIKRTVAAPSVFIFPPSDEQLKSGTASVVCLLNNFYPREAKVQWKVDNALQSGNSQESVTEQDSKDSTYSLSSTLTLSKADYEKHKVYACEVTHQGLSSPVTKSFNRGEC | binds | binds | binds

Second part, the binder after the results:

binding result [1] | binding result [2] | binding result [3] | Binder
binds | binds | no binding | SI-35E24 (bispecific antibody, not shown: small tags and cut ends, Tetra-specific; the listing has only VHv3/VLv2; also called SI-3524) heavy (part 1 of 7): DIQMTQSPSTLSASVGDRVTITCQSSQSVYSNWFSWYQQKPGKAPKLLIYSASTLASGVPSRFSGSGSGTEFTLTISSLQPDDFATYYCAGGYNTVIDTFAFGGGTKVEIK heavy (part 2 of 7): EVQLLESGGGLVQPGGSLRLSCAASGIDFSRRYYMCWVRQAPGKGLEWIACIYTGSRDTPHYASSAKGRFTISRDNSKNTLYLQMNSLRAEDTAVYYCAREGSLWGQGTLVTVSS heavy (part 3 of 7): not shown heavy (part 4 of 7): EVQLVESGGGLVQPGGSLRLSCAASGFSLNNYWMSWVRQAPGKGLEWIGTISSGAYTWFATWATGRFTISRDNSKNTLYLQMNSLRAEDTAVYYCARYSSTTDWTYFNIWGQGTLVTVSS heavy (part 5 of 7): DIQMTQSPSTLSASVGDRVTITCQASQSINNYLAWYQQKPGKAPKLLIYRASTLESGVPSRFSGSGSGTEFTLTISSLQPDDFATYYCQSYNGVGRTAFGGGTKVEIK heavy (part 6 of 7): EVQLVESGGGLVQPGGSLRLSCAASGFTISTNAMSWVRQAPGKGLEWIGVITGRDITYYASWAKGRFTISRDNSKNTLYLQMNSLRAEDTAVYYCARDGGSSAITSNNIWGQGTLVTVSS heavy (part 7 of 7): DVVMTQSPSTLSASVGDRVTINCQASESISSWLAWYQQKPGKAPKLLIYEASKLASGVPSRFSGSGSGTEFTLTISSLQPDDFATYYCQGYFYFISRTYVNSFGGGTKVEIK light: AYDMTQSPSSVSASVGDRVTIKCQASEDIYSFLAWYQQKPGKAPKLLIHSASSLASGVPSRFSGSGSGTDFTLTISSLQPEDFATYYCQQGYGKNNVDNAFGGGTKVEIKRTVAAPSVFIFPPSDEQLKSGTASVVCLLNNFYPREAKVQWKVDNALQSGNSQESVTEQDSKDSTYSLSSTLTLSKADYEKHKVYACEVTHQGLSSPVTKSFNRGEC
binds | binds | no binding | SI-35E25 (bispecific antibody, not shown: small tags and cut ends, Tetra-specific; the listing has only VHv3/VLv2) heavy (part 1 of 7): ALVMTQSPSTLSASVGDRVTINCQASEDIDTYLAWYQQKPGKAPKLLIFYASDLASGVPSRFSGSGSGTEFTLTISSLQPDDFATYYCQGGYYTSSADTRGAFGGGTKVEIK heavy (part 2 of 7): QSLVESGGGLVQPGGSLRLSCAASGFSFSSNYWICWVRQAPGKGLEWIACIYVGSSGDTYYASSAKGRFTISRDNSKNTLYLQMNSLRAEDTAVYYCARDSSSYYMFNLWGQGTLVTVSS heavy (part 3 of 7): not shown heavy (part 4 of 7): EVQLVESGGGLVQPGGSLRLSCAASGFSLNNYWMSWVRQAPGKGLEWIGTISSGAYTWFATWATGRFTISRDNSKNTLYLQMNSLRAEDTAVYYCARYSSTTDWTYFNIWGQGTLVTVSS heavy (part 5 of 7): DIQMTQSPSTLSASVGDRVTITCQASQSINNYLAWYQQKPGKAPKLLIYRASTLESGVPSRFSGSGSGTEFTLTISSLQPDDFATYYCQSYNGVGRTAFGGGTKVEIK heavy (part 6 of 7): EVQLVESGGGLVQPGGSLRLSCAASGFTISTNAMSWVRQAPGKGLEWIGVITGRDITYYASWAKGRFTISRDNSKNTLYLQMNSLRAEDTAVYYCARDGGSSAITSNNIWGQGTLVTVSS heavy (part 7 of 7): DVVMTQSPSTLSASVGDRVTINCQASESISSWLAWYQQKPGKAPKLLIYEASKLASGVPSRFSGSGSGTEFTLTISSLQPDDFATYYCQGYFYFISRTYVNSFGGGTKVEIK light: AYDMTQSPSSVSASVGDRVTIKCQASEDIYSFLAWYQQKPGKAPKLLIHSASSLASGVPSRFSGSGSGTDFTLTISSLQPEDFATYYCQQGYGKNNVDNAFGGGTKVEIKRTVAAPSVFIFPPSDEQLKSGTASVVCLLNNFYPREAKVQWKVDNALQSGNSQESVTEQDSKDSTYSLSSTLTLSKADYEKHKVYACEVTHQGLSSPVTKSFNRGEC
